From patent US20220288124A1 (AUGUSTA UNIVERSITY RESEARCH INSTITUTE, published 2022)
Several values for one entry are separate records, joined by “and”; a condition that tells them apart may be missing. Equal entries are not always repeated.

Legend:
[1] = molecular target: T1, soluble hGPC3 protein (recombinant human glypican 3) (human, UniProt P51654 25-560, limits assumed); experiment: BLI, 1:1 global fit; KD Error 2.90E-10, R^2 0.9993
T1 construct: The construct used in ELISA and BLI and as FITC-labelled protein is not further defined; also called rhGPC3; FITC-labeled hGPC3
T1 sequence (P51654 25-560 limits assumed): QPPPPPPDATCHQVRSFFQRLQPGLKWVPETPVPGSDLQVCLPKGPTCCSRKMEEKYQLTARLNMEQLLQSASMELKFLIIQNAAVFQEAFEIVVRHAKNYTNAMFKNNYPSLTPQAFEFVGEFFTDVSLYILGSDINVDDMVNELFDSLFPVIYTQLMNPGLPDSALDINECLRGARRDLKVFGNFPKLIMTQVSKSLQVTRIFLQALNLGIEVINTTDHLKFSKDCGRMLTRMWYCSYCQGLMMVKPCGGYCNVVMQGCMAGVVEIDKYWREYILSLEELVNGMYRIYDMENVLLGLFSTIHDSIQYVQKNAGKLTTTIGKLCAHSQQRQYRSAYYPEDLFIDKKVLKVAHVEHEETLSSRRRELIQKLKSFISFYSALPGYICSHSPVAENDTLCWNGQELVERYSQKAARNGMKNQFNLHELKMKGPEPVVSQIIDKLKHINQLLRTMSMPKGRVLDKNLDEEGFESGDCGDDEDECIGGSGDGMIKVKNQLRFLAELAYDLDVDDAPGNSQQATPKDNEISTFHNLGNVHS
Description: (§1) Kinetics experiments were performed using the ForteBio Octet Red96 platform. All data were collected at 25° C. with orbital shaking at 1,000 rpm in 200 μL in 96-well black flat bottom plates (Greiner Bio-one). Anti-hIgG Fc Capture Sensor (ForteBio) were equilibrated for 10 min in 1×kinetics buffer prior to loading with 5 μg/mL of mAbs for 2 min. After the loading step, a 30 s baseline in 1×kinetics buffer was established before association with a range of concentrations of GPC3 for 2 min. Following mAbs association with GP, there was a 10-minute of dissociation step in kinetic buffer. For all experiments, two reference sensors without association to mAbs were used to account for nonspecific binding of analyte to the sensor and the system drift. All data were fit globally to a 1:1 Langmuir binding model using data analysis software 9.0 (ForteBio).

[2] = molecular target: T1, soluble hGPC3 protein (recombinant …); experiment: ELISA of recombinant mAb on hGPC3, OD450
[3] = molecular target: T1, soluble hGPC3 protein (recombinant …); experiment: BLI, 1:1 global fit; kon Error 8.02E+01, R^2 0.9993
Description: as §1

[4] = molecular target: T2, hGPC3 on the surface of HCC tumor cells (HepG2; hGPC3low Huh7) (human, UniProt P51654 25-554); experiment: immunofluorescent staining of HepG2 cells at different mAb concentrations, percent positive cells; hGPC3 on HepG2 cells
T2 construct: whole, on cells; GPI-anchored; also called hGPC3 on HepG2 cells; hGPC3 molecules on the tumor cell surface
T2 sequence (P51654 25-554 limits assumed): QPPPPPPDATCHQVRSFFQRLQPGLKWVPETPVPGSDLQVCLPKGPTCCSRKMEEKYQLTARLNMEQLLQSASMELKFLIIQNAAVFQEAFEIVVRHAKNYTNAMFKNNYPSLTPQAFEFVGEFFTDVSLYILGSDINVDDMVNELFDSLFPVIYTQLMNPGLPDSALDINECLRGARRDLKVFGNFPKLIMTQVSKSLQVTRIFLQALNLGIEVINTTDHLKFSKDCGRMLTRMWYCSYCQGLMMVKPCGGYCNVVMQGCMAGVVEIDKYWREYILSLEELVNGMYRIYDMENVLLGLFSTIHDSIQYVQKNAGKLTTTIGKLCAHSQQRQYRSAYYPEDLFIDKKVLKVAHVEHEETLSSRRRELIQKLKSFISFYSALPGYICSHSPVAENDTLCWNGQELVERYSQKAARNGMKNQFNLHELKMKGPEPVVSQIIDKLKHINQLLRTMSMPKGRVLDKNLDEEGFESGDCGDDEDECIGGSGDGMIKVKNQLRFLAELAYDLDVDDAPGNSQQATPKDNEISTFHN
Description: FIG. 3A is an illustration showing the schematic structure of the recombinant mAbs. SP: signal peptide of human IgG; VL: variable region of light chain; VH: variable region of heavy chain; CL: constant region of human IgG light chain; CH: constant region of human IgG heavy chain. FIG. 3B is gel showing PAGE analysis of purified recombinant mAbs under reduced and non-reduced condition. mAbs were purified from the 293 cells after co-transfection of the L and H chain expressing plasmids. Gel was stained with SimplyBlue SafeStain, FIG. 3C is a graph showing the EC50 of recombinant mAbs by ELISA. FIG. 3D is a panel of graphs showing the Kd value of each mAbs was measured by BLI. Each experiment was repeated at least 3 times and similar data were obtained. FIG. 3E is a graph showing the Kd value of mAbs 6G11, 8F8, and 12D7 for staining HepG2 tumor cells. Immunofluorescent staining was conducted for HepG2 tumor cells using the mAbs at different concentration. Based on the percent of positive cells and the mAb concentration, the Kd value was calculated by Prism software.
(§2) The 3 mAbs belong to different Ig classes, i.e., 6G11 and 12D7 are IgM, whereas 8F8 is IgG2a. To fairly compare their affinity, mAbs were generated recombinant using their VL and VH and a same human IgG constant region. Fig.3A illustrates the structure of the recombinant mAbs. The mAbs were expressed and purified from 293 cells (FIG 3B). […] The mAb's affinity was also studied by BioLayer Interferometry (BLI). […] The affinity data obtained by ELISA assay and BLI are in the same order, i.e., 6G11>12D7>8F8. Because the purpose of developing the mAbs is to bind hGPC3 molecules on the tumor cell surface, we determined the affinity of the mAbs for hGPC3 on HepG2 cells.

[5] = molecular target: T1, soluble hGPC3 protein (recombinant …); experiment: BLI, 1:1 global fit; kdis(1/s); kdis Error 1.83E-06, R^2 0.9993
Description: as §1

[6] = molecular target: T1, soluble hGPC3 protein (recombinant …); experiment: BLI (Octet Red96), mAb captured on anti-hIgG Fc sensor, GPC3 as analyte, 1:1 fit, 25 C; BLI, soluble hGPC3
Description: as §1, §2

[7] = molecular target: T3, hGPC3-N fragment (AA1-358) (human, UniProt P51654 25-358); experiment: flow cytometry, intracellular staining of 293 cells transfected with hGPC3-N; gate set on untransfected cells
T3 construct: range 1-358; Detected by intracellular staining or western blot of transfected 293/293T cells
T3 sequence (P51654 25-358 limits assumed, form in doubt): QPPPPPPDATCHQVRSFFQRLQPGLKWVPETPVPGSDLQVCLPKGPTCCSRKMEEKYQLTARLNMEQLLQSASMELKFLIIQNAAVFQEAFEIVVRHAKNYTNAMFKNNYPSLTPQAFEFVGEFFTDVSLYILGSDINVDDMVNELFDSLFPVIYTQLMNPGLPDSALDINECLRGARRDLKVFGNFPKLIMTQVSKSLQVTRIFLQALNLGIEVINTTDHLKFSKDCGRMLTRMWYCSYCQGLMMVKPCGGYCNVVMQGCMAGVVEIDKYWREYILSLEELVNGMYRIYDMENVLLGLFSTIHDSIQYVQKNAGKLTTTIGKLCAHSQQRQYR
Description: FIG. 1A is a table of 22 hGPC3-specific mAbs identified by ELISA assay. Their Ig class, staining of HepG2 cells, and binding of the hGPC3 N- or C-fragment were provided. […] FIG. 1B is a panel of micrographs showing representative immunofluorescent stainings of HepG2 tumor cells by 5 mAbs. FIG. 1C is a diagram of plasmids expressing the N- and C-fragments of hGPC3. FIG. 1D is a panel of graphs showing 293 cells transfected with either hGPC3-N or hGPC3-C plasmid intracellularly stained with indicated mAbs. The gate was set by the parental 293T cells without transfection.

N4 (88-126) = molecular target: T4, N4 (88-126) (human, UniProt P51654); experiment: ELISA on plate-coated synthetic peptide, anti-human IgG-HRP
T4 construct: overlapping synthetic peptide
T4 peptide (looked up): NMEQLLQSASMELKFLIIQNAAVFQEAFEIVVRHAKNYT
Description: (§3) 96-well Flat-Bottom Immuno Plates (from Thermo Fisher) were coated with 4 ug of PBS-diluted peptides, overnight, at […]. 1 ug of rhGPC3 (from Creative Biomart) was used as positive control. The next day, peptides were discarded and plates were blocked with 100 μl of 5% non-fat milk in PBS. Then, the plates were washed with 300 μl/well of PBST (0.1% Tween20). Next, incubation with 100 uL/well of different antibody dilutions. This was followed by four washes with PBST. Then, incubation with 100 uL/well of anti-human IgG-HRP (From KPL) (1:2000 dilution). This was followed by four washes with PBST. Next, 100 uL/well of TMB (from Biolengend), incubation for 30 minutes. Then, 100 uL/well of 2N H2SO4. Lastly, OD450 nm was detected in an xMark™ Microplate Spectrophotometer (from BIO-RAD). If not indicated otherwise, incubations were performed for 1 hour at RT, and antibodies were diluted in 2% non-fat milk in PBS.

[8] = molecular target: T5, N1 peptide (AA25-39 of hGPC3) (human, UniProt P51654 25-39); experiment: as above
T5 construct: range 25-39
T5 peptide (looked up): QPPPPPPDATCHQVR
Description: as §3

N3 (59-97) = molecular target: T6, N3 (59-97) (human, UniProt P51654); experiment: as above
T6 construct: overlapping synthetic peptide
T6 peptide (looked up): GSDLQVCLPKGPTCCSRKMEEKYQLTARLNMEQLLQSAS
Description: as §3

N2 (30-68) = molecular target: T7, N2 (30-68) (human, UniProt P51654); experiment: as above
T7 construct: overlapping synthetic peptide
T7 peptide (looked up): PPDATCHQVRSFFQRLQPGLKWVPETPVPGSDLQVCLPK
Description: as §3

[9] = molecular target: T1, soluble hGPC3 protein (recombinant …); experiment: BLI, 1:1 global fit; kdis(1/s); kdis Error 2.89E-06, R^2 0.9958
Description: as §1

[10] = molecular target: T1, soluble hGPC3 protein (recombinant …); experiment: BLI, 1:1 global fit; KD Error 9.61E-11, R^2 0.9958
Description: as §1

[11] = molecular target: T1, soluble hGPC3 protein (recombinant …); experiment: BLI, 1:1 global fit; kon Error 2.81E+02, R^2 0.9958
Description: as §1

[12] = molecular target: T1, soluble hGPC3 protein (recombinant …); experiment: BLI, 1:1 global fit; KD Error 8.68E-11, R^2 0.9939
Description: as §1

[13] = molecular target: T1, soluble hGPC3 protein (recombinant …); experiment: BLI, 1:1 global fit; kon Error 4.12E+02, R^2 0.9939
Description: as §1

[14] = molecular target: T1, soluble hGPC3 protein (recombinant …); experiment: BLI, 1:1 global fit; kdis(1/s); kdis Error 3.37E-06, R^2 0.9939
Description: as §1

B1: recombinant mAb 8F8 (8F8 VL and VH fused to human IgG constant regions) (antibody, V domains shown)
VH: EVKLVESGGDLVKPGGSLKLSCAASGFTFSRYGLSWVRQTPEKRLEWVATISGSGSYTYYPDSVKGRFTISRDNAKNNLYLQMSSLRSEDTALYYCVRRGTYGYDNWGQGTTLTVSS
VL: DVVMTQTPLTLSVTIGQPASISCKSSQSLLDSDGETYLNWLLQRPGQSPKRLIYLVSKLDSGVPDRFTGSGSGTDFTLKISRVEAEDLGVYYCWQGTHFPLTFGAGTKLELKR
notes: Expressed in 293 cells; only the claims assign heavy and light; also called 8F8 mAb
For B1, the Kd [1] was 22.9 nM, the EC50 [2] was 0.294 µg/mL and 1.93 nM and the kon [3] was 8970 M⁻¹ s⁻¹. The EC50 [4] was 12 nM, the koff [5] was 0.000206 s⁻¹ and the Kd [6] was 23 nM.

B2: mAb 8F8 (mouse hybridoma antibody) (antibody, V domains shown)
VH: B1 VH
VL: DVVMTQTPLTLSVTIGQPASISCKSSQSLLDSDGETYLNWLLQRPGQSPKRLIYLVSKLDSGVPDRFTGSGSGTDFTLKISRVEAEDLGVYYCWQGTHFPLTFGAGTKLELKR
notes: Mouse IgG2a with kappa light chain, from hybridoma
For B2, the “% of cells in the positive gate” value [7] was 0.31%.

B3: recombinant mAb 12D7 (12D7 VL and VH fused to human IgG constant regions) (antibody, V domains shown)
VH: QVQLQQPGSELVRPGASVKLSCKASGYTFTSYWMHWVKQRLGQGLEWIGNIYPGSGSTNYDEKFKSKGTLTVDTSSSTAYMHLSSLTSEDSAVYYCTRGDYDWVFAYWGQGTLVTVSA
VL: DIVMTQSQKFMSTSVGDRVSVTCKASQNVGTNVAWYQQKPGQSPKALIYSASYRYSGVPDRFTGSGSGTDFTLTISNVQSEDLAEYFCQQYNSYPLTFGAGTKLELKR
notes: Expressed in 293 cells; only the claims assign heavy and light; also called 12D7 mAb
B3: no binding (tested: 10 µg/ml) (N4 (88-126)); no binding (tested: 10 µg/ml) [8]; no binding (tested: 10 µg/ml) (N3 (59-97)). For the same binder, the binding result (N2 (30-68)) was “no binding (tested: 10 µg/ml)”, the koff [9] was 0.000405 s⁻¹ and the EC50 [2] was 0.125 µg/mL and 0.82 nM. The “EC50 (read off the curve)” value [2] was roughly 0.1 mg/L, the Kd [10] was 9.76 nM and the EC50 [4] was 0.1 nM. The Kd [6] was 9.8 nM and the kon [11] was 41500 M⁻¹ s⁻¹.

B4: mAb 12D7 (mouse hybridoma antibody) (antibody, V domains shown)
VH: B3 VH
VL: B3 VL
notes: Mouse IgM with kappa light chain, from hybridoma
B4 was tested, and the “% of cells in the positive gate” value [7] was 43.2%.

B5: recombinant mAb 6G11 (6G11 VL and VH fused to human IgG constant regions) (antibody, V domains shown)
VH: QVQLQQPGSELVRPGASVKLSCKASGYTFTSCWMHWVKQRPGQGLEWIGNIYPGYGNTNYDEKFKNKATLTVDTSSSTAYMQLSGLTSEDSAVYYCTRGSYLYAMDYWGQGTSVTVSS
VL: DIQMNQSPSSLSASLGDTITITCHASQNINVWLSWYQQKPGNIPKLLIYKASNLHTGVPSRFSGSGSGTGFTLTISSLQPEDIATYYCQQGQSYPWTFGGGTKLEIKR
notes: Expressed in 293 cells; only the claims assign heavy and light; also called 6G11 mAb
B5 was tested, and the binding result [8] was “binds”, the Kd [12] was 7.43 nM and the EC50 [2] was 0.0072 µg/mL and 0.047 nM. The EC50 [4] was 0.095 nM, the kon [13] was 52400 M⁻¹ s⁻¹ and the koff [14] was 0.000389 s⁻¹. It also gave a Kd [6] of 7.4 nM.

B6: mAb 6G11 (mouse hybridoma antibody) (antibody, V domains shown)
VH: B5 VH
VL: B5 VL
notes: Mouse IgM with kappa light chain, from hybridoma; claim 21 names 5 and 7 as the amino acid entries
B6 was tested, and the “% of cells in the positive gate” value [7] was 44.3%.
